Measurements published in PMC11189301, “Structure of the human outer kinetochore KMN network complex” (Nature Structural & Molecular Biology, 2024).
Numbering of substitutions follows the chain as printed. Names may count otherwise.

B1: Knl1^mut2: Knl1 (2131–2337 construct) with S2270R S2272W substitutions (protein)
chain: SLSEWDVVEWSDDQAVFTFVYDTIQLTITFEESVVGFPFLDKRYRKIVDVNFQSLLDEDQAPPSSLLVHKLIFQYVEEKESWKKTCTTQHQLPKMLEEFSLVVHHCRLLGEEIEYLKRWGPNYNLMNIDINNNELRLLFRSWAAFAKFEITLFLSAYYPSVPLPSTIQNHVGNTSQDDIATILSKVPLENNYLKNVVKQIYQDLFQD
modifications: left off: His6, N-terminal, cleaved
notes: Knl1 (2131–2337 construct) with S2270R S2272W substitutions
B2: Knl1^mut1: Knl1 (2131–2337 construct) with R2248D W2249A substitutions (protein, UniProt Q8NG31 2131-2337, looked up, variant R2248D W2249A)
chain: B1 chain with R118D, W119A, R140S, W142S
B3: Knl1^mut3: Knl1 (2131–2337 construct) with S2270R S2272W R2248A W2249A substitutions (protein, UniProt Q8NG31 2131-2337, looked up, variant S2270R S2272W R2248A W2249A)
chain: B1 chain with R118A, W119A
B4: Mis12 (natural protein, Homo sapiens, UniProt Q9H081 1-205, looked up)
chain: MSVDPMTYEAQFFGFTPQTCMLRIYIAFQDYLFEVMQAVEQVILKKLDGIPDCDISPVQIRKCTEKFLCFMKGHFDNLFSKMEQLFLQLILRIPSNILLPEDKCKETPYSEEDFQHLQKEIEQLQEKYKTELCTKQALLAELEEQKIVQAKLKQTLTFFDELHNVGRDHGTSDFRESLVSLVQNSRKLQNIRDNVEKESKRLKIS
notes: Mis12, subunit of human MIS12C; Subunit within the KMN network cryo-EM sample; source: High-5 insect cells, expressed and purified as part of MIS12C
B5: Dsn1 (natural protein, Homo sapiens, UniProt Q9H410 1-356, looked up)
chain: MTSVTRSEIIDEKGPVMSKTHDHQLESSLSPVEVFAKTSASLEMNQGVSEERIHLGSSPKKGGNCDLSHQERLQSKSLHLSPQEQSASYQDRRQSWRRASMKETNRRKSLHPIHQGITELSRSISVDLAESKRLGCLLLSSFQFSIQKLEPFLRDTKGFSLESFRAKASSLSEELKHFADGLETDGTLQKCFEDSNGKASDFSLEASVAEMKEYITKFSLERQTWDQLLLHYQQEAKEILSRGSTEAKITEVKVEPMTYLGSSQNEVLNTKPDYQKILQNQSKVFDCMELVMDELQGSVKQLQAFMDESTQCFQKVSVQLGKRSMQQLDPSPARKLLKLQLQNPPAIHGSGSGSCQ
notes: Dsn1, subunit of human MIS12C; Subunit within the KMN network cryo-EM sample; residues N-terminal to Arg92 are disordered; source: High-5 insect cells, expressed and purified as part of MIS12C
B6: Spc25 (natural protein, Homo sapiens, UniProt Q9HBM1 1-224, looked up)
chain: MVEDELALFDKSINEFWNKFKSTDTSCQMAGLRDTYKDSIKAFAEKLSVKLKEEERMVEMFLEYQNQISRQNKLIQEKKDNLLKLIAEVKGKKQELEVLTANIQDLKEEYSRKKETISTANKANAERLKRLQKSADLYKDRLGLEIRKIYGEKLQFIFTNIDPKNPESPFMFSLHLNEARDYEVSDSAPHLEGLAEFQENVRKTNNFSAFLANVRKAFTATVYN
notes: Spc25, subunit of human NDC80C; coordinates traced D80–N224; Subunit within the KMN network cryo-EM sample; source: High-5 insect cells, expressed and purified as part of NDC80C
B7: ZWINT (natural protein, human, UniProt O95229 1-277, looked up)
chain: MEAAETEAEAAALEVLAEVAGILEPVGLQEEAELPAKILVEFVVDSQKKDKLLCSQLQVADFLQNILAQEDTAKGLDPLASEDTSRQKAIAAKEQWKELKATYREHVEAIKIGLTKALTQMEEAQRKRTQLREAFEQLQAKKQMAMEKRRAVQNQWQLQQEKHLQHLAEVSAEVRERKTGTQQELDRVFQKLGNLKQQAEQERDKLQRYQTFLQLLYTLQGKLLFPEAEAEAENLPDDKPQQPTRPQEQSTGDTMGRDPGVSFKAVGLQPAGDVNLP
notes: ZWINT, human; coordinates traced Q183–G221; Subunit within the KMN network cryo-EM sample; source: High-5 insect cells, expressed and purified as part of KNL1C
B8: Nsl1 (natural protein, Homo sapiens, UniProt Q96IY1 1-281, looked up)
chain: MAGSPELVVLDPPWDKELAAGTESQALVSATPREDFRVRCTSKRAVTEMLQLCGRFVQKLGDALPEEIREPALRDAQWTFESAVQENISINGQAWQEASDNCFMDSDIKVLEDQFDEIIVDIATKRKQYPRKILECVIKTIKAKQEILKQYHPVVHPLDLKYDPDPAPHMENLKCRGETVAKEISEAMKSLPALIEQGEGFSQVLRMQPVIHLQRIHQEVFSSCHRKPDAKPENFITQIETTPTETASRKTSDMVLKRKQTKDCPQRKWYPLRPKKINLDT
notes: Nsl1, subunit of human MIS12C; Subunit within the KMN network cryo-EM sample; source: High-5 insect cells, expressed and purified as part of MIS12C

Columns and labels:
MIS12C = assay: SEC assessment of Knl1 mutants binding to MIS12C; design: species or system Homo sapiens; settings: Knl1 (2131–2337) mutant + MIS12C at 4 µM each, 20 mM HEPES pH 7.8, 150 mM NaCl, 0.5 mM TCEP, Superose 6, at least two repeats
Method: Assessment of substitutions in the MIS12C–KNL1 interfaces
To test the effect of substitutions in the MIS12C–KNL1 interfaces, either wild-type MIS12C or MIS12C^Nsl1ΔC was mixed with either wild-type KNL1 or two mutants (KNL1^R2248D […] (KNL1^mut1), KNL1^S2270R S2272W (KNL1^mut2)) at 4 µM each in a buffer of 20 mM HEPES (pH 7.8), 150 mM NaCl and 0.5 mM TCEP, and 50 µl was loaded onto a Superose 6 size-exclusion column (Cytiva).
Extended Data Fig. 9 Biochemical validation of the MIS12C:Knl1 interface. a Coomassie blue-stained SDS-PAGE gels of the MIS12C:Knl1 interaction reconstitutions. MIS12C (WT) and MIS12C with Nsl1 truncated at the C-terminus (1–264 Nsl1 construct, MIS12C^Nsl1ΔC) were tested in their ability to bind either wild-type RWD domains of Knl1 (2131–2337 construct, labelled Knl1 for simplicity) or Knl1 mutants (R2248D/W2249S substitutions, Knl1^mut1, and S2270R/S2272W substitutions, Knl1^mut2, as well as S2270R/S2272W/R2248A/W2249S substitutions, Knl1^mut3). The binding experiments were repeated at least two independent times with identical results. The gels are aligned according to the fraction number of the protein sample eluted from the size exclusion column. b SEC elution chromatograms of all of the experiments described in (a). Source data

Dsn1 = target: B5; assay: cryo-EM structure; NDC80C, MIS12C and KNL1C mixed 1:1:1 and run on Superose 6 in 20 mM HEPES pH 8.0, 80 mM NaCl, 1 mM MgCl2, 1 mM TCEP; about 1 mg/ml on UltrAuFoil grids; 3.0 Å (MIS12C heads 3.8 Å); settings: both partners purified
Nsl1 = target: B8; assay: as above; settings: both partners purified
Knl1 residues 1870–2342 = target: T1, Knl1 residues 1870–2342 (human, UniProt Q8NG31 1870-2342); assay: as above; settings: both partners purified
T1 construct: Knl1, human, 2,342-residue protein, residues 1870-2342; coordinates traced R2097–H2342; Subunit within the KMN network cryo-EM sample; also called extended version of the Knl1 C terminus; source: High-5 insect cells, expressed and purified as part of KNL1C
T1 sequence (looked up): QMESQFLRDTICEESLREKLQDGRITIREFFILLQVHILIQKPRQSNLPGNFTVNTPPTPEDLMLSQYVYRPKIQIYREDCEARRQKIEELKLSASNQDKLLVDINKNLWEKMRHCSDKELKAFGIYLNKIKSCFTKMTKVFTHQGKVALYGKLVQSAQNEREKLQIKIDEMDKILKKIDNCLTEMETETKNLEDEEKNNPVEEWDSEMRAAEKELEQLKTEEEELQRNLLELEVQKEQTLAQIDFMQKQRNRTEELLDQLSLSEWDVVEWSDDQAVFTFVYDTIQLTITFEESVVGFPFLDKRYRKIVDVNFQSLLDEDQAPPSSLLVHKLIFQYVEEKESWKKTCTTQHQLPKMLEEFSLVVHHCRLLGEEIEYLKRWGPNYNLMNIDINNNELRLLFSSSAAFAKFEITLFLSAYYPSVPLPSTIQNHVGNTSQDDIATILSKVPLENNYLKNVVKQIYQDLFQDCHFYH

Molecule	MIS12C–Knl1 interaction by SEC, in words (MIS12C)	binding result (Dsn1)	binding result (Nsl1)	binding result (Knl1 residues 1870–2342)	also measured
B1	did not importantly disrupt MIS12C–Knl1 interactions				MIS12C–Knl1 interaction by SEC, in words (MIS12C; listed as Knl1mut2): does not appear to reduce interaction with MIS12C
B2	did not importantly disrupt MIS12C–Knl1 interactions				
B3	little to no change in the interaction				
B4		binds	binds		
B5				binds	
B6		binds	binds		
B7			binds	binds	
B8		binds		binds	
